These results are taken from patent US20100233689A1.

The target in experiment [1] is rat MISRII receptor (MIS type II receptor), transiently expressed in COS7 cells (rat) (UniProt Q62893). Put plainly: cell-based or functional assay.
In experiment [2] the target is endogenous MISRII of the mouse ovarian cancer cell line MOVCAR7 (mouse) (UniProt Q8K592). As to the kind of experiment: cell-based or functional assay.

Where only a bound is given, the exact number is not on record here.

Chain of rat MISRII receptor (MIS type II receptor), transiently expressed in COS7 cells (rat) (Q62893 18-557): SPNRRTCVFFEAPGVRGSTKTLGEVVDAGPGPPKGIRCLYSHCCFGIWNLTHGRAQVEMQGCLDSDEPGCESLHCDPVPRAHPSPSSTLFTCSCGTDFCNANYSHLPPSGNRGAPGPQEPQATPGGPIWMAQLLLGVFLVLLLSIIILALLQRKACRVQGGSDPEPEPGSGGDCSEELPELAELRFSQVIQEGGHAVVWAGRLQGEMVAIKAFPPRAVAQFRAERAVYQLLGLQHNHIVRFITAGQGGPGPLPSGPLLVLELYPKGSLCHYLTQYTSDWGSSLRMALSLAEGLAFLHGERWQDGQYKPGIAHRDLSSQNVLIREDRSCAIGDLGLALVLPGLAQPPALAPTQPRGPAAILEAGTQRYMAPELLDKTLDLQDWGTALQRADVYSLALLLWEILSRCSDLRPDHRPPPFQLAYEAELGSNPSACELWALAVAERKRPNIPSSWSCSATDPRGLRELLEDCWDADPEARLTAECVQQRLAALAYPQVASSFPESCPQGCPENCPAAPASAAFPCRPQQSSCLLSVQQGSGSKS
Chain of endogenous MISRII of the mouse ovarian cancer cell line MOVCAR7 (mouse) (Q8K592 16-568): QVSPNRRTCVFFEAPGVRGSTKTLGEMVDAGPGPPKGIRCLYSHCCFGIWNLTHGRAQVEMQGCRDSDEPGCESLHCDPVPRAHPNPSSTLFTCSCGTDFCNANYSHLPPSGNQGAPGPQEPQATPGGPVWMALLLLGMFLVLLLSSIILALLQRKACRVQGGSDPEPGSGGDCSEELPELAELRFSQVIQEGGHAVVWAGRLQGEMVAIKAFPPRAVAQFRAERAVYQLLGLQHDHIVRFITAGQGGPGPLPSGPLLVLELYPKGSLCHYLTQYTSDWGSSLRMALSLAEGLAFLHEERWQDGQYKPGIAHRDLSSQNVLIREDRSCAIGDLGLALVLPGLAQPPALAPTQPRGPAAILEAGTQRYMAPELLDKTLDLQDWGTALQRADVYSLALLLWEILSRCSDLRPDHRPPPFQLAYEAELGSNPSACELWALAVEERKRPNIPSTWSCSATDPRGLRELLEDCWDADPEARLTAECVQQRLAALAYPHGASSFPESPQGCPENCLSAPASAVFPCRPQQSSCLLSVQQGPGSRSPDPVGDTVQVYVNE

In experiment [1], “Recombinant human Mullerian Inhibiting Substance (MIS) (from UniProt P03971 25-560) (ligand)” showed a BRE-luciferase reporter expression in MISRII-transfected COS7 cells, fold induction, 24 h above 10 fold. Moreover, in experiment [2], the BRE-luciferase activity in MOVCAR7 cells, fold increase over untreated cells, 24 h came to 2 fold.
